T1: wild-type Prp24 for electrophoretic mobility shift assays (TEV-labile N-terminal polyhistidine tag removed) (S. cerevisiae, UniProt P49960 1-444)
T1 chain: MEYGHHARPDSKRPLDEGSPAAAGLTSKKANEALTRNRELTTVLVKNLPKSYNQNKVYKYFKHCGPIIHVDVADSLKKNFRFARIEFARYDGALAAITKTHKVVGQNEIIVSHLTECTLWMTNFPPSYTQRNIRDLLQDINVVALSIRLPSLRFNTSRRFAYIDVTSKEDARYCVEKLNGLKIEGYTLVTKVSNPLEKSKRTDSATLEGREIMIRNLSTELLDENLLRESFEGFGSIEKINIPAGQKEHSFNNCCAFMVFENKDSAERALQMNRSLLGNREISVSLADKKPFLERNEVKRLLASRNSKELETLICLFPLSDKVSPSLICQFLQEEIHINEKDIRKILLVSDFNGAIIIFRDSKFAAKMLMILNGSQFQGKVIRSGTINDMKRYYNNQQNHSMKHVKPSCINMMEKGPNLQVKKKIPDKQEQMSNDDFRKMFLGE

T2: Prp24-8Asub (eight RRM4 residues at the Lsm2 interface substituted with alanine) (S. cerevisiae, UniProt P49960 1-444, D361A | S362A | K363A | K367A | L369A | M370A | I371A | N373A)
T2 sequence: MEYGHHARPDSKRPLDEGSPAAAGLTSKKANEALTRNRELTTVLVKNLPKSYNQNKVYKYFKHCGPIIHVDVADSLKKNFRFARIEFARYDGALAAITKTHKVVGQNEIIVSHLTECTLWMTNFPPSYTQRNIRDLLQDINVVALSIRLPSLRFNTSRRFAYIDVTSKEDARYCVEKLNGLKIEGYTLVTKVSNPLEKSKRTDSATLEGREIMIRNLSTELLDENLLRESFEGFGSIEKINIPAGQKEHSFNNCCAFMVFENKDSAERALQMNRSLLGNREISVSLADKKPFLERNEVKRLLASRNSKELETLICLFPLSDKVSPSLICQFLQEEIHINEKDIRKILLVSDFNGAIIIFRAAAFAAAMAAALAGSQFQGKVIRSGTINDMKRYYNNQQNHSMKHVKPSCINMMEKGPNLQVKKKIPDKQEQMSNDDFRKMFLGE


Key:
[1] = target: Prp24 (EMSA, wild type);Lsm2-8 mostly wild type (Saccharomyces cerevisiae;Saccharomyces cerevisiae) (UniProt P38203+P57743+P40070+P40089+Q06406+P53905+P47093); experiment: EMSA; details: Lsm2-8 titrated onto U6 pre-bound with 20 nM Prp24; FP: 50 mM KCl or as listed 100 mM KCl in both 2x buffers, HEPES (10 mM acid + 10 mM Na salt), 10% glycerol, 1 mM TCEP, tRNA, heparin, BSA, 0.3 nM FAM-RNA …
[2] = target: Prp24-8Asub;Lsm2-8 mostly wild type (Saccharomyces cerevisiae;Saccharomyces cerevisiae) (UniProt P38203+P57743+P40070+P40089+Q06406+P53905+P47093); experiment: EMSA; details: Lsm2-8 titrated onto U6 pre-bound with 20 nM Prp24-8Asub; FP: 50 mM KCl or as listed 100 mM KCl in both 2x buffers, HEPES (10 mM acid + 10 mM Na salt), 10% glycerol, 1 mM TCEP, tRNA, heparin, BSA, 0.3 nM FAM-RNA …
[3] = target: Prp24-8Asub (eight RRM4 residues at the Lsm2 interface substituted with alanine) (S. cerevisiae) (UniProt P49960); experiment: native gel or EMSA; different amounts of Lsm2–8 added to 0.5 nM Cy3-U6 1–112 pre-incubated 20 min with 20 nM Prp24; 100 mM KCl, bis-tris pH ~6.5, room temperature; 6% native polyacrylamide gel at 4 °C; Hill fit, average of three technical replicates
[4] = target: Prp24-8Asub (eight RRM4 residues at the Lsm2 interface substituted with alanine) (S. cerevisiae) (UniProt P49960)
[5] = target: T1, wild-type Prp24 for electrophoretic …; experiment: EMSA; Prp24 pre-bound to U6 RNA (U6/Prp24 complex)
[6] = target: T2, Prp24-8Asub (eight RRM4 residues at the …); experiment: EMSA; Prp24-8Asub pre-bound to U6 RNA (U6/Prp24 complex)

Sequence of Prp24-8Asub;Lsm2-8 mostly wild type (Saccharomyces cerevisiae;Saccharomyces cerevisiae) (P40070 whole entry, looked up, one chain of several): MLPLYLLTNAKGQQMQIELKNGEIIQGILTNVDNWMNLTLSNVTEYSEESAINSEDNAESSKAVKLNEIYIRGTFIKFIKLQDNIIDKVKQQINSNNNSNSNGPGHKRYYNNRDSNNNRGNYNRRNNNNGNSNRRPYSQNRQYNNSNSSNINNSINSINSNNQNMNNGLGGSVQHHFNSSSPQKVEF
Sequence of Prp24 (EMSA, wild type);Lsm2-8 mostly wild type (Saccharomyces cerevisiae;Saccharomyces cerevisiae) (P40070 whole entry, looked up, one chain of several): as above

| fold reduction of affinity against wild-type Prp24 (U6•Prp24 complex) [3] | rate of in vitro annealing of U4 and U6 with Prp24-8Asub in place of wild-type Prp24 (50 nM Prp24/50 nM Lsm2–8) [4] | Kd [5] | Kd [6] | Molecule | Kd [1] | Kd [2] |
| --- | --- | --- | --- | --- | --- | --- |
| – | – | – | – | Cy3-U6 1-112 | 2.8 nM | 5.7 nM |
| 2 fold | 2 fold slower | 2.8 nM | 5.7 nM | Lsm2–8 heteroheptameric ring, "mostly wild type" construct (complex) chain 1: MGSMLFFSFFKTLVDQEVVVELKNDIEIKGTLQSVDQFLNLKLDNISCTDEKKYPHLGSVRNIFIRGSTVRYVYLNKNMVDTNLLQDATRREVMTERK chain 2: MGSMETPLDLLKLNLDERVYIKLRGARTLVGTLQAFDSHCNIVLSDAVETIYQLNNEELSESERRCEMVFIRGDTVTLISTPSEDDDGAVEI chain 3: MGSMLPLYLLTNAKGQQMQIELKNGEIIQGILTNVDNWMNLTLSNVTEYSEESAINSEDNAESSKAVKLNEIYIRGTFIKFIKLQDNIIDKVKQQI chain 4: MGSMSLPEILPLEVIDKTINQKVLIVLQSNREFEGTLVGFDDFVNVILEDAVEWLIDPEDESRNEKVMQHHGRMLLSGNNIAILVPGGKKTPTEAL chain 5: GSMSGKASTEGSVTTEFLSDIIGKTVNVKLASGLLYSGRLESIDGFMNVALSSATEHYESNNNKLLNKFNSDVFLRGTQVMYISEQKI chain 6: MGSMHQQHSKSENKPQQQRKKFEGPKREAILDLAKYKDSKIRVKLMGGKLVIGVLKGYDQLMNLVLDDTVEYMSNPDDENNTELISKNARKLGLTVIRGTILVSLSSAEGSDVLYMQK chain 7: GSMSATLKDYLNKRVVIIKVDGECLIASLNGFDKNTNLFITNVFNRISKEFICKAQLLRGSEIALVGLIDAENDDSLAPIDEKKVPMLKDTKNKIENEHVIWEKVYESKTK | – | – |

From PMC5931518, “Architecture of the U6 snRNP reveals specific recognition of 3′-end processed U6 snRNA”
